From patent US20140120115A1 (MorphoSys, published 2014)

How the values were obtained:
[1] = target: T1, recombinant human macrophage migration inhibitory factor (MIF) (human, UniProt P14174 2-115, biotinylated (Amersham ECL Protein Biotinylation kit; sites not stated)); experiment: ELISA, IgG at 6.25 nM on biotinylated human MIF on neutravidin plate
T1 construct: also called human MIF; biotinylated MIF
Method: (§1) Cross-reactivity of antibodies to human MIF and human D-DT was determined by ELISA. Biotinylated recombinant human MIF or D-DT with a concentration of 1 μg/ml were coated on reacti-bind neutravidin coated black 384-well plates (Thermo Scientifc) for 1, 5 h at room temperature. Reacti-bind neutravidin plates had been pretreated with PBS/5% skim milk powder before. After washing with PBST purified IgGs were applied in a concentration of 6.25 nM on a MIF or a D-DT coated plate respectively and incubated for 2 hours at room temperature. After subsequent washing antigen-specific bound IgG was detected via AP-Goat-anti-human IgG Fc-γ fragment specific (Fa Jackson ImmunoResearch) secondary antibody and application of Attophos (Fa ROCHE) according to the manufacturer's manual. Fluorescence intensity was measured via Tecan Reader GeniosPro and fluorescence intensity for the individual clones was compared to control antibody.

[2] = target: T1, recombinant human macrophage migration …; experiment: ELISA, antibody at 6.25 nM on recombinant MIF (FIG. 2)
Method: as §1

[3] = target: T2, recombinant human D-dopachrome tautomerase (D-DT) (human, UniProt P30046 2-118, biotinylated (Amersham ECL Protein Biotinylation kit; sites not stated)); experiment: ELISA, antibody at 6.25 nM on recombinant D-DT (FIG. 2)
T2 construct: Used biotinylated on neutravidin plates; also called human D-DT
Method: as §1

[4] = target: T1, recombinant human macrophage migration …; experiment: ELISA, IgG titrated (0-166 nM) on biotinylated human MIF on neutravidin plate
Method: (§2) For further characterization, the EC₅₀ concentration for each of the cross-reactive antibodies to MIF and to D-DT was determined based on the ELISA setting according to Example 1. Concentrations of each of the individual antibodies were titrated and 8 distinct concentrations from 0 nM to 166 nM were applied side by side on a plate coated with MIF and a plate coated with D-DT. Biotinylated recombinant human MIF or D-DT with a concentration of 1 μg/ml were coated on reacti-bind neutravidin coated black 384-well plates (Thermo Scientifc) for 1, 5 h at room temperature. Reacti-bind neutravidin plates had been pretreated with PBS/5% skim milk powder before. After washing with PBST purified IgGs were added to the MIF or D-DT coated plate respectively and incubated for 2 hours at room temperature. After subsequent washing antigen-specific bound IgG was detected via AP-Goat-anti-human IgG Fc-γ fragment specific (Fa Jackson ImmunoResearch) secondary antibody and application of Attophos (Fa ROCHE) according to the manufacturer's manual. Fluorescence intensity was measured via Tecan Reader GeniosPro and fluorescence intensity for the individual clones was plotted in a typical antibody titration curve. EC₅₀ values were determined with the program GraphPad Prism using non-linear regression analysis.

[5] = target: T2, recombinant human D-dopachrome …; experiment: ELISA, IgG at 6.25 nM on biotinylated human D-DT on neutravidin plate
Method: as §1

[6] = target: T2, recombinant human D-dopachrome …; experiment: ELISA, IgG titrated (0-166 nM) on biotinylated human D-DT on neutravidin plate
Method: as §2

[7] = target: T1, recombinant human macrophage migration …; experiment: ELISA; lower end of the group's range, tied to C on MIF by Table 2
Method: as §2

[8] = target: T2, recombinant human D-dopachrome …; experiment: ELISA; upper end of the group's range, tied to A on D-DT by Table 2
Method: as §2

T2 sequence (P30046 2-118 limits assumed): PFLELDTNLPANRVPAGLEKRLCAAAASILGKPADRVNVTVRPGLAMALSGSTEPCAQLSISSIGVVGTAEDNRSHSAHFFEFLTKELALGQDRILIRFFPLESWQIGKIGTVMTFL
T1 sequence (P14174 2-115 limits assumed): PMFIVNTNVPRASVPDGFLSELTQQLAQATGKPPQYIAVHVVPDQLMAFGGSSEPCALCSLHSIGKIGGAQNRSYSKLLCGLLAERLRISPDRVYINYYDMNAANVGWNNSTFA

Row | fold signal intensity compared to the negative control [1] | fold fluorescence intensity above background [2] | fold fluorescence intensity above background [3] | EC50 [4] | fold signal intensity compared to the negative control [5] | EC50 [6] | EC50 [7] | EC50 [8] | Binder
1 | ≥ 5 fold | > 5 fold | > 5 fold | 0.486 nM | ≥ 5 fold | 8.47 nM | – | – | MOR014116 (antibody, V domains shown, also called antibody B) VH: QVQLVQSGAEVKKPGSSVKVSCKASGGTFSDYAISWVRQAPGQGLEWMGLIIPLFGTANYAQKFQGRVTITADESTSTAYMELSSLRSEDTAVYYCARSPAYQLVTPYYYVSDWFDVWGQGTLVTVSS VL: DIVLTQPPSVSGAPGQRVTISCSGSSSNIGSNYVSWYQQLPGTAPKLLIYDNSERPSGVPDRFSGSKSGTSASLAITGLQAEDEADYYCQSWDASPWSYVFGGGTKLTVLG
2 | ≥ 5 fold | > 5 fold | > 5 fold | 0.36 nM | ≥ 5 fold | 2.29 nM | 0.3 nM | – | MOR014138 (antibody, V domains shown, also called antibody C) VH: QVQLVQSGAEVKKPGSSVKVSCKASGGTFTSYAIHWVRQAPGQGLEWMGRIIPHFGTAYYAQKFQGRVTITADESTSTAYMELSSLRSEDTAVYYCARVQVYMSVLGWGYENYMDVWGQGTLVTVSS VL: DIVLTQSPATLSLSPGERATLSCRASQSVSAFQLGWYQQKPGQAPRLLIYGASTRATGIPARFSGSGSGTDFTLTISSLEPEDFAVYYCQQYIQYPYTFGQGTKVEIKR
3 | ≥ 5 fold | > 5 fold | > 5 fold | 1.14 nM | ≥ 5 fold | 21.2 nM | – | 22 nM | MOR014093 (antibody, V domains shown, also called antibody A) VH: QVQLLESGGGLVQPGGSLRLSCAASGFTFSDYYMDWVRQAPGKGLEWVSAISSSGSTTYYADSVKGRFTISRDNSKNTLYLQMNSLRAEDTAVYYCARGNLFGSTYVMGFDHWGQGTLVTVSS VL: DIELTQPPSVSVSPGQTASITCSGDSIGSTHVSWYQQKPGQAPVLVIYRKSNRPSGIPERFSGSNSGNTATLTISGTQAEDEADYYCSSWDSESVVFGGGTKLTVLG
